From patent publication US20240336907A1, “NOVEL ENDO-ß-N-ACETYLGLUCOSAMINIDASE” (priority 2020, published 2024)

Tested on: (Fucα1,6)GlcNAc-mAb2
Test: Transglycosylation activity with SGP as donor, in combination with Endo-M N175Q
Type: biochemical
Settings: donor SGP (50 eq.), Endo-M N175Q 2.5 mU, Endo-Si enzyme 10 μg, 23° C., pH 7.5
Procedure: Transglycosylation activity was evaluated as follows. A 50 mM (sodium) phosphate buffer (pH 7.5) solution (17 μL) containing (Fucα1,6)GlcNAc-mAb2 (0.5 mg), SGP (0.485 mg (50 eq.)), Endo-M N175Q (manufactured by Tokyo Kasei Kogyo Co., Ltd.) (2.5 mU) and each of various Endo-Si mutant enzymes (10 μg), was prepared and incubated at 23° C. A sample was taken from each of the reaction solutions at 2, 4, 6, 24, and 48 hours after initiation of the reaction and analyzed for protein by a fully automated electrophoresis system as mentioned above. In the chromatogram obtained, an unreacted product and a transglycosylated molecule, mAb2-(SG)2 are confirmed as discrete peaks. The transglycosylation rates were obtained based on the peak area ratio between the unreacted product and the transglycosylated molecule in accordance with the following expression.
Similarly, transglycosylation rates of individual Endo-Si mutant enzymes at each time period of a reaction were calculated (Table 6).

B1: Endo-Si WT: endo-β-N-acetylglucosaminidase derived from Streptococcus iniae, amino acid positions 34 to 928 in SEQ ID NO: 2 (protein, listed as Streptococcus iniae)
chain: REELKMPNGLEQSIADVEAKIDALTYLSKNSKDEFKHSMYEIPSNREHKPVSPKQALQNAKKADAQAERLAKMTIPKKEELKALEGPLYGGYFRTWQDKTSDPTETNKVNSFGELPKEVDLAFVFHDYTKDYSLFWEELATKQVPKLNKQGTRVIRTIPWRFLSGADHSDISADKEKFPNTEAGNKALAKAIVDEYVYKYNLDGLDIDIERDSVPKVNDKEDPEALARTVEVFKEIGKLIGANGADKSRLLIMDTTYTAEENPLIKETAQYLNLLLVQVYGFSGENGNYLHHKNILDETSSMEGRWQGYSKYIRPEQYMVGFSFYEEKDFNNRWKDINEEDPSDPHIGEKIQGTRAERYAKWQPKTGGLKGGLFSYAIDRDGVAQPKQKTEHPELDKIVKSEYKVSKALKKLMMTDDQYQPIDQSDFPDKALRESIIKQVGTRRGDLERFKGTLRLDNPEIKDLTGLNKLKRVAKLELINLPKITKIDKDDLPQNLKPLTDNQKSNLEIKGTYDDSKLYKDIPAFDLVISGLSGLESLDISGHQRDTLSGIDASTLPSLKAINISDNHFDLAQGTENRHILDTILATLAKNGASTASFDKQKPKGLYPESYSTAPLHLQVGQGKINVIDDLIFGTRTNQNTLINTENDFEAYKEQTIQGKPFIAPDYLYDNFKVSYKEYSASIVDSTLAETTDKTIDTAKAETYQVTVSNKDGKTVHSVKVIVGDEKPMMVNLAQDAKIIGTDNMTQSAKVFDGQKDQFLLSWNKDSSVIFELKTPGTAKHWRFFDDGKNDSVTLSVFKGDASNFETEKDKAENWVEITKDSRKNDDKVFSSPLEVDNAKYLKVTIKKEAKYIYFNELQILGYPGVVAKKTADDLRPTEADKSDDKSDKNDTEAK
Question: For B1, which Transglycosylation rate (2 h) is on record?
Answer: 1.2%

Question: And the Transglycosylation rate (4 h)?
Answer: 1.1%

Question: What about the Transglycosylation rate (6 h) of the same molecule?
Answer: 0.0%

Question: What about the Transglycosylation rate (24 h) of the same molecule?
Answer: 0.0%

Question: And the Transglycosylation rate (48 h)?
Answer: 0.0%
